In article PMC5042384, “Sequence-Dependent T:G Base Pair Opening in DNA Double Helix Bound by Cren7, a Chromatin Protein Conserved among Crenarchaea”:

T1: Cren7 (UniProt Q97ZE3 1-60)
T1 sequence: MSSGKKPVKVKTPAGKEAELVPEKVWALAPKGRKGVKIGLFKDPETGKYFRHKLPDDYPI


How the values were obtained:
[1] = molecular target: T1, Cren7; assay: X-ray crystallography; 2.0 A; T2:G15 open; SPR (BIAcore 3000): 50 mM Tris-Cl pH 7.5, 100 mM NaCl, 1 mM EDTA, 0.005% Tween 20, 25 C, 1:1 Langmuir global fit; crystals: protein:DNA 1:1.5, 30% PEG1500, 20 C; settings: protein: recombinant; blunt; self-annealed octamer, 2 strand copies, T:G mispairs T2:G15 and G7:T10
[2] = molecular target: T1, Cren7; assay: X-ray crystallography; 2.1 A; both T:G wobble; SPR (BIAcore 3000): 50 mM Tris-Cl pH 7.5, 100 mM NaCl, 1 mM EDTA, 0.005% Tween 20, 25 C, 1:1 Langmuir global fit; crystals: protein:DNA 1:1.5, 30% PEG1500, 20 C; settings: protein: recombinant; blunt; self-annealed octamer, 2 strand copies, T:G mispairs T2:G15 and G7:T10

Row | Binder | binding result [1] | binding result [2]
1 | d(GTAATTGC)2 (dsDNA) DNA 1: GTAATTGC DNA 2: GTAATTGC | binds | –
2 | d(GTGATCGC)2 (dsDNA) DNA 1: GTGATCGC DNA 2: GTGATCGC | – | binds
